Test results from CN107987163A (HANGZHOU SHANGJIAN BIOTECHNOLOGY CO LTD, dated 2018).

Key:
[1] = target: T1, A549细胞表面AXL (AXL on the surface of A549 cells) (UniProt P30530 26-894, limits assumed); test: flow cytometry on A549 cells, 9A diluted to 20μg/ml, PE mouse anti-human IgG detection
T1 construct: whole, on cells; also called 细胞表面抗原
T1 sequence (looked up): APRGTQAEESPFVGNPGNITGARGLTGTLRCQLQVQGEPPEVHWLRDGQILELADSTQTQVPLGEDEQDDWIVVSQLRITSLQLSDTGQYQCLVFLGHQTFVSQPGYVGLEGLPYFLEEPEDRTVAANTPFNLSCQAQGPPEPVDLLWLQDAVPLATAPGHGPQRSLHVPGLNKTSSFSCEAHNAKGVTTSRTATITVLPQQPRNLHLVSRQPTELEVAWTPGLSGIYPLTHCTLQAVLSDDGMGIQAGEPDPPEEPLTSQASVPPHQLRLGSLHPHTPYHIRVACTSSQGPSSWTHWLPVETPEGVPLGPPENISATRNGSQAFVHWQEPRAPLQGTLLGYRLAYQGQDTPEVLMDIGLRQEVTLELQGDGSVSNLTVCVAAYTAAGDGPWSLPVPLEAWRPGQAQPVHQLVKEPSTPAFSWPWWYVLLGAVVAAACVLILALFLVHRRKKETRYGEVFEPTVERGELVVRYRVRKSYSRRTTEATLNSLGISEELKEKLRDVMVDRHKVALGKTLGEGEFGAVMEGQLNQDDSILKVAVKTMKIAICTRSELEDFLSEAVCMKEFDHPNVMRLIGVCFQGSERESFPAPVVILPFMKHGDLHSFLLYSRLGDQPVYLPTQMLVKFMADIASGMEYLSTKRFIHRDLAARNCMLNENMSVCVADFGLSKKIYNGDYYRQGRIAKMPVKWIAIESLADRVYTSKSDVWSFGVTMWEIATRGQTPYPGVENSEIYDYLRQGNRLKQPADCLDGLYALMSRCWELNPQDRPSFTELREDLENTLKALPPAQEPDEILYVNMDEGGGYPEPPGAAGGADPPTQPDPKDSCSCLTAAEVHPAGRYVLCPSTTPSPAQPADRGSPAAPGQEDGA

[2] = target: BSA (BOVOGEN) (UniProt P02769 25-607); test: ELISA, protein coated at 1μg/ml, goat anti-human IgG-HRP detection
[3] = target: T2, AXL-Fc (人AXL蛋白胞外段-人IgG1Fc段融合蛋白) (human, UniProt P30530 26-451); test: ELISA, AXL-Fc coated at 1μg/ml, antibody titrated, goat anti-human IgG (Fab')2-HRP detection
T2 construct: extracellular domain; Expressed in CHO-K1 cells; also called 靶抗原AXL-Fc; 抗原AXL-Fc
T2 sequence (looked up): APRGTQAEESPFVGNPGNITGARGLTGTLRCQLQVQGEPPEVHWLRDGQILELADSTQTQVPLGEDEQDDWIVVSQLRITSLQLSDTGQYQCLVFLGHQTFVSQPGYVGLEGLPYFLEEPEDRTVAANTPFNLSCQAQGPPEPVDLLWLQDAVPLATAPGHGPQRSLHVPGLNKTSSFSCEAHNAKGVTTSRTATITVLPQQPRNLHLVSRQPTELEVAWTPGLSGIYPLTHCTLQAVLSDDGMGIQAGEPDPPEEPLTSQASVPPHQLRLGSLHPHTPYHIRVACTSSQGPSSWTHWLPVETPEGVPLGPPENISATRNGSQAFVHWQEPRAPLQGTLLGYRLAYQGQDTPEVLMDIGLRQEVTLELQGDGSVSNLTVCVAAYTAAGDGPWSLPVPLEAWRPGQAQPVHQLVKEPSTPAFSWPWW

Sequence of BSA (BOVOGEN) (P02769 25-607 limits assumed): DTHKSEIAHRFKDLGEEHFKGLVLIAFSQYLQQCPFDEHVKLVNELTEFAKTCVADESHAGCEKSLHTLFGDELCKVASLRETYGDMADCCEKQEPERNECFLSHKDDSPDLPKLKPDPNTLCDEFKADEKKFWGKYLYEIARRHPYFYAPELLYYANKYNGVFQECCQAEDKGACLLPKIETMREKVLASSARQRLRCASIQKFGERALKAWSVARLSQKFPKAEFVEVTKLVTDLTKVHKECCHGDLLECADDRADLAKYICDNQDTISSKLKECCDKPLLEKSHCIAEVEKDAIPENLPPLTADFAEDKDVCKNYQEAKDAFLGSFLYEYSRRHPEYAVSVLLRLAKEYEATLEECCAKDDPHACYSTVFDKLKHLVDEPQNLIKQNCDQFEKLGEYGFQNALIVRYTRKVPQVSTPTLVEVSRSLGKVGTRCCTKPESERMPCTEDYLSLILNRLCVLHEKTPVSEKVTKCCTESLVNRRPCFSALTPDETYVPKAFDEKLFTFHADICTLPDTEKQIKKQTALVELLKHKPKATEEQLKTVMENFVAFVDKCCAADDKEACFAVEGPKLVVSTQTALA

binding result [1]: binds
binding result [2]: no binding
binding result [3]: binds
B1: 9A抗体 (full antibody 9A, anti-AXL monoclonal antibody) (antibody, human IgG1, kappa, V domains shown)
VH: QVQLVQSGAEVKKPGSSVKVSCKASGGTFSSYAISWVRQAPGQGLEWMGGIIPIFGTANYAQKFQGRATITADESTSTAYMELSSLRSEDTAVYYCARAYYDFWSGYEPWGQGTLVTVSS
VL: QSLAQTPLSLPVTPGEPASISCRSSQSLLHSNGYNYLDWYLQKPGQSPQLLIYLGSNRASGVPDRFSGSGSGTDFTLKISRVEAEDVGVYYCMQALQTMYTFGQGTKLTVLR
notes: also called 单克隆抗体9A; 全抗体
